Entries after “also recorded” stand apart in the source; their conditions may differ. Like-named read-outs stand apart in the source and are kept apart here.
T1: pea PBGS (Pisum sativum, UniProt P30124)
T1 sequence (P30124 69-398 limits assumed): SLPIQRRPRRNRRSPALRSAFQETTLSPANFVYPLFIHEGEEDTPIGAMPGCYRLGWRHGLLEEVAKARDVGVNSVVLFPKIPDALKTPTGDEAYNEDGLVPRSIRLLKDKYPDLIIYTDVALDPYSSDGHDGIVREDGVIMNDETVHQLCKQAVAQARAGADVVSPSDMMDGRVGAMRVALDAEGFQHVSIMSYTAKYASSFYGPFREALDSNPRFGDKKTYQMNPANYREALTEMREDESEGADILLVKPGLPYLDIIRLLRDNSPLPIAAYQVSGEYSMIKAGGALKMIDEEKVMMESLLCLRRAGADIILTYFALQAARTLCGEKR

B1: F12L: naturally occurring rare allele variant of human PBGS, hexameric, heterologously expressed in E. coli (protein)
chain: MQPQSVLHSGYLHPLLRAWQTATTTLNASNLIYPIFVTDVPDDIQPITSLPGVARYGVNRLEEMLRPLVEEGLRCVLIFGVPSRVPKDERGSAADSEESPAIEAIHLLRKTFPNLLVACDVCLCPYTSHGHCGLLSENGAFRAEESRQRLAEVALAYAKAGAQVVAPSDMMDGRVEAIKEALMAHGLGNRVSVMSYSAKFASCFYGPFRDAAKSSPAFGDRRCYQLPPGARGLALRAVDRDVREGADMLMVKPGMPYLDIVREVKDKHPDLPLAVYHVSGEFAMLWHGAQAGAFDLKAAVLEAMTAFRRAGADIIITYYTPQLLQWLKEE

Tests used:
Assay type in all cases: biochemical
[1] = target: T2, pea PBGS (Pisum sativum, UniProt P30124, C394A); test: native PAGE gel shift of pea PBGS octamer/hexamer equilibrium; settings: pea PBGS C326A hexamer, rosmarinic acid 12.5 μM-12.5 mM preincubated 30 min 37 C, then 1 mM ALA and 1 mM MgCl2
T2 construct: made in house
T2 sequence (P30124 69-398 C394A): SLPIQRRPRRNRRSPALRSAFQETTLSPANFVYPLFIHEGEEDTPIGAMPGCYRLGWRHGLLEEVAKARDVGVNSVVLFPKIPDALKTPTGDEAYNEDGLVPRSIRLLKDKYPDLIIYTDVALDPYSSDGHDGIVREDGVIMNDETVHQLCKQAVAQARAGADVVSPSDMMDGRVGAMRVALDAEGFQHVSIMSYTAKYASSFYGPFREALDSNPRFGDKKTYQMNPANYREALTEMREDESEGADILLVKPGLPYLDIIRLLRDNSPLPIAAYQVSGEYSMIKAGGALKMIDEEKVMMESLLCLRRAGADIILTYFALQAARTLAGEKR
Experimental: (§1) FIG. 32(a) The inhibitor morphlock-1 is illustrated as posed by Glide. The subunits A, B, and E are illustrated as ribbon diagram. Morphlock-1 is shown with carbon atoms and illustrated as ball and stick. FIG. 32(b) The chemical structure of morphlock-1. […] Pea PBGS was incubated with various concentrations of morphlock-1 (in a DMSO solution). Each concentration of morphlock-1 with a fixed amount of DMSO was incubated with protein for 30 minutes at 37° C. prior to resolution on 12.5% polyacrylamide native PhastGels. […] (d) The protein concentration dependence of pea PBGS specific activity is illustrated. PBGS (at varied concentrations) was incubated in the presence of DMSO (●) or 50 μM morphlock-1 in DMSO (∘) for 30 minutes at 37° C. prior to assay. The final concentration of morphlock-1 in the inhibited assay was 5 μM, and the concentration of PBGS in the inhibited and control assays ranged from 0.05-50 μg/mL (0.014-1.4 μM).
FIG. 34(b) Hexameric pea PBGS (1 mg/mL, prepared by dialysis against low ionic strength) was incubated with DMSO (left) or 500 μM morphlock-1 (right) for 30 minutes at 37° C. ALA was added at the indicated concentrations, and the incubation was continued for 30 minutes prior to resolution on 12.5% polyacrylamide native PhastGels. […] Morphlock-1 concentrations are listed at the top of each lane. Protein samples for left-most gel were at 50 μg/ml (1.4 μM subunit) and 1 mM ALA; protein detection is by silver staining. Samples for the middle gel were also at 50 μg/ml (1.4 μM subunit) and 1 mM ALA; the gel was activity stained. Samples for the right-most gel were at 5 μg/ml (0.14 μM subunit) and 10 mM magnesium; protein detection is by Krypton Infrared staining.
FIG. 41 illustrates native PAGE screening of compounds. Octameric PBGS (1 mg/mL) was incubated with DMSO or 2 mM of each compound for 30 minutes at 37° C. prior to resolution on 12.5% polyacrylamide native PhastGels. […] Each compound is identified by its box address. The compound B6 is morphlock-1.
The interconversion of pea PBGS hexamer and octamer is a dynamic equilibrium that responds to protein concentration, substrate concentration, magnesium concentration, inhibitor concentration, and ionic strength.

[2] = target: T1, pea PBGS; test: pea PBGS activity assay (inhibition, protein concentration dependent specific activity); parameters: made in house
Experimental: as §1, with “PBGS (at varied concentrations) was incubated in the presence of DMSO (●) or 50 μM morphlock-1 in DMSO (∘) for 30 minutes at 37° C. prior to assay.” left out
The proteins were incubated in the presence of 10× inhibitor for 30 minutes at 37° C. prior to assay. The concentrations on the X-axis represent the final concentration of morphlock-1 in the assay. FIG. 33(b). […] IC50 values were determined as per part (a) using the noted concentrations of pea PBGS. (c) Native PAGE evaluation of the effect of morphlock-1 on the quaternary structure equilibria of PBGS (˜1 mg/ml) from D. melanogaster, P. aeruginosa, V. cholerae, and H. sapiens. Note that the charge/mass ratio is not the same for PBGS from different species.
The dose response curve for morphlock-1 inhibition of pea PBGS (FIG. 37a) was initially carried out at 0.03 μM pea PBGS, where the hexamer is a significant component of the equilibrium mixture; the morphlock-1 concentration was varied from 0.1 μM to 0.1 mM.
The dose response curve for morphlock-1 inhibition of pea PBGS (FIG. 33(a)) was initially carried out at 0.03 μM pea PBGS, where the hexamer is a significant component of the equilibrium, in order to optimize the observed inhibition; the morphlock-1 concentration was varied from 0.1 μM to 0.1 mM.

[3] = tested on: human PBGS; test: kinetic characterization (Km, Vmax, specific activity) of human PBGS variants with substrate ALA; settings: for Km1 / Vmax1: Table 1; for Vmax2 / Km: Table 3; for Km: read-out: Km2 (Km for the hexamer)
Experimental: All kinetic determinations were carried out in 0.1 M bis-tris propane, 10 mM 2-mercaptoethanol, 10 μM Zn. For the pH rate profiles, the reported pH reflects the assay pH after the addition of 10 mM ALA-HCl. For Km and Vmax determinations, concentrations of ALA were 10 μM, 30 μM, 100 μM, 300 μM, 1 mM, 3 mM, and 10 mM and were each done in duplicate. […] All assays were at 37° C. for a fixed time using Ehrlich's reagent to determine porphobilinogen formed.
The kinetic parameters Km and Vmax of the S300 purified pools were determined at pH 7 and at pH 9 (Table 3 contains data for hetero-hexamers (Pool I) initially at 70% Leu and 30% Phe and for hetero-octamers (Pool II) initially at 30% Leu and 70% Phe). […] With the exception of the trace amount of octamer present for Pool I that is detected at pH 9, all the kinetic values are well determined (see Table 3). […] The factors that govern equilibration of human PBGS heteromers under assay conditions remain to be elucidated.
Km1 and Km2 (both mM) are interpreted as the Km for the octamer and hexamer, respectively.
Using freshly prepared hetero-oligomers of WT+F12L, the Pool I and Pool II proteins were separated chromatographically and then dialyzed for 24 hours at pH 7 in the presence of 10 mM ALA. Following dialysis, the re-equilibrated hetero-oligomers were again separated into their hexameric and octameric components by chromatography on a Mono-Q column. The separated proteins were characterized for their specific activity and for their Phe12 and Leu12 content. The specific activity of hexamer and octamer are dramatically different with hexamer showing optimal activity at pH 9 and the activity of octamer is maximal at pH 7 (Table 4). […] Following chromatographic separation, the proteins were called Pool I hexamer, Pool I octamer, Pool II hexamer, and Pool II octamer and are described below. The peak to elute first on the Mono-Q column runs comparably to the F12L mutant, which is the hexamer. The hexameric structure is substantiated by native gel electrophoresis and by specific activity at pH 7 and pH 9 (FIG. 26A and Table 4). The second peak to elute runs comparably to the WT human PBGS, which is the octamer. The octameric structure is substantiated by native gel electrophoresis and specific activity at pH 7 and pH 9 (FIG. 26A and Table 4). Consistent with the documented characteristics of human PBGS hexamers and octamers, Pool I hexamer and Pool II hexamer have very low activity at pH 7 and considerable activity at pH 9. Pool I octamer and Pool II octamer both show substantially higher activity at pH 7 than at pH 9.

[4] = tested on: human PBGS; test: temperature dependence (Arrhenius plots) of hetero-hexamer to hetero-octamer conversion and of substrate turnover; settings: pH 7.0, 10 mM ALA-HCl
Source text: To determine the free energy of activation for the conversion of hetero-hexamers to hetero-octamers, we took advantage of the dramatic differences in the activity of octameric (high activity) and hexameric (low activity) human PBGS at pH 7.0 (3, 5). Because of this difference, the transition from purified hetero-hexamers to a mixture of hetero-hexamers and hetero-octamers under turnover conditions is accompanied by a progressive increase in the specific activity; this process was monitored at several temperatures. Starting with purified hetero-hexamers, (FIG. 34a) the specific activity increased, which is fit to a first-order exponential as exemplified in FIG. 35b (5). […] The time-courses for conversion of hetero-hexamer to hetero-octamer were monitored by periodically removing aliquots from the incubations and immediately quantifying porphobilinogen using Ehrlich's reagent and calculating specific activities based on the total incubation time. […] An activation energy for hetero-hexamer to hetero-octamer conversion (Ea=63±5 kJ/mol) was determined from the slope of the plot. […] However, we previously monitored this process at 5 μg/ml and 0.9 mg/ml, two widely different enzyme concentrations, by specific activity increase and dynamic light scattering respectively. […]

Molecule | native gel: conversion of hexamer to octamer by ALA and magnesium [1] | IC50 [2] [µM] | mode of inhibition (dependence on preincubation time) [2] | PBGS concentration giving half maximal specific activity after rosmarinic acid treatment ([2]; 30 minute treatment with 30 μM rosmarinic acid, untreated 3.5 μg/ml) [µg/mL] | Specific activities before and after substrate induced disproportionation ([3]; pH 7) [µmol/h/mg] | Km1 ([3]; pH 7) [mM] | Vmax1 ([3]; pH 7) | Vmax2 ([3]; pH 7) [µmol/h/mg] | Km ([3]; pH 7) [mM] | Specific activities before and after substrate induced disproportionation ([3]; pH 9) [µmol/h/mg] | Km1 ([3]; pH 9) [mM] | Vmax1 ([3]; pH 9) | Vmax2 ([3]; pH 9) [µmol/h/mg] | Km ([3]; pH 9) [mM] | activation energy for substrate turnover [4] [kcal/mol]
O=C(/C=C/c1ccc(O)c(O)c1)O[C@H](Cc1ccc(O)c(O)c1)C(=O)O [rosmarinic acid, benzenepropanoic acid, α-[[(2E)-3-(3,4-dihydroxyphenyl)-1-oxo-2-propenyl]oxy]-3,4-dihydroxy-, (αR)-(9CI), reference compound] | prevent conversion of the hexamer to the octamer; also recorded: stabilizes the hexameric pea PBGS against conversion to the octamer | ~63 | slow-binding inhibitor | 13.5 | – | – | – | – | – | – | – | – | – | – | –
B1 | – | – | – | – | 0.3 | 17.7 ± 1.1 | 1.14 ± 0.05 | 1.14 ± 0.05 | 17.7 ± 1.1 | 14.5 | 4.6 ± 0.1 | 18.2 ± 0.02 | 18.2 ± 0.2 | 4.6 ± 0.1 | 10.8 ± 0.72

Source: patent publication US8153410B2, “Alternate morpheein forms of allosteric proteins as a target for the development of bioactive molecules” (Fox Chase Cancer Center, priority 2003, dated 2012)
